T1: Cathepsin G (UniProt P08311 21-244)
T1 sequence (looked up): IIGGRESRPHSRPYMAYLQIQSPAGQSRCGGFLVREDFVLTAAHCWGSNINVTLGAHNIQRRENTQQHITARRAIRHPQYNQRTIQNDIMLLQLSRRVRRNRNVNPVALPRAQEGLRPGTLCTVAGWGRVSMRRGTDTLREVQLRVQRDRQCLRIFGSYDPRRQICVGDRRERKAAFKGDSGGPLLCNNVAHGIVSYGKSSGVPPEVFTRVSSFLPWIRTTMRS

T2: MMP1 (human, UniProt P03956 100-469, limits assumed)
T2 sequence (looked up): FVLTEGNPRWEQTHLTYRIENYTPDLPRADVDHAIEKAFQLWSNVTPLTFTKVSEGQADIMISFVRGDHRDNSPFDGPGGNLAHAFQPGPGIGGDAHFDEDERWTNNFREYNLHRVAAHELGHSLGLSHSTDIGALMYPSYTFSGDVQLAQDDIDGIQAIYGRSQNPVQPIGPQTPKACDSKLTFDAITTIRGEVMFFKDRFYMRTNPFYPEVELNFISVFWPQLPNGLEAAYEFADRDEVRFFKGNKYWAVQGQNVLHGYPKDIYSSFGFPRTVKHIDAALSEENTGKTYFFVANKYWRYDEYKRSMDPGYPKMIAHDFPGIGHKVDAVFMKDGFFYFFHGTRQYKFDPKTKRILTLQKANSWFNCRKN

T3: MMP7 (UniProt P09237 95-267, limits assumed)
T3 sequence (looked up): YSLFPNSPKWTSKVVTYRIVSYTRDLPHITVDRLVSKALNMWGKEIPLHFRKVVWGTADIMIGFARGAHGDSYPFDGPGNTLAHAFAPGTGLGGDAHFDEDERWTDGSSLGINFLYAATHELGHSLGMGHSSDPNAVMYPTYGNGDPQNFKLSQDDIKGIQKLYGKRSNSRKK

T4: ADAMTS5 (human, UniProt Q9UNA0 262-622, limits assumed)
T4 sequence (looked up): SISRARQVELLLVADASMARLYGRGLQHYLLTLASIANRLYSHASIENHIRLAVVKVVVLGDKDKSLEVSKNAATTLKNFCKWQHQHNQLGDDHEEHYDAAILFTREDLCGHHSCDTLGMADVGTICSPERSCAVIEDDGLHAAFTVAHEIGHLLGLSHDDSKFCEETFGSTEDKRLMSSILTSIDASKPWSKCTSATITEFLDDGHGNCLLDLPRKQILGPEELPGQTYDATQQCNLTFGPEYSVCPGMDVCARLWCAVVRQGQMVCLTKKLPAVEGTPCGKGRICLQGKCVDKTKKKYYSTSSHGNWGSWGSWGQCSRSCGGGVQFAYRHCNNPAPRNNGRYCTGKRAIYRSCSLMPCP

T5: ADAMTS4 (human, UniProt O75173 213-685, limits assumed)
T5 sequence (looked up): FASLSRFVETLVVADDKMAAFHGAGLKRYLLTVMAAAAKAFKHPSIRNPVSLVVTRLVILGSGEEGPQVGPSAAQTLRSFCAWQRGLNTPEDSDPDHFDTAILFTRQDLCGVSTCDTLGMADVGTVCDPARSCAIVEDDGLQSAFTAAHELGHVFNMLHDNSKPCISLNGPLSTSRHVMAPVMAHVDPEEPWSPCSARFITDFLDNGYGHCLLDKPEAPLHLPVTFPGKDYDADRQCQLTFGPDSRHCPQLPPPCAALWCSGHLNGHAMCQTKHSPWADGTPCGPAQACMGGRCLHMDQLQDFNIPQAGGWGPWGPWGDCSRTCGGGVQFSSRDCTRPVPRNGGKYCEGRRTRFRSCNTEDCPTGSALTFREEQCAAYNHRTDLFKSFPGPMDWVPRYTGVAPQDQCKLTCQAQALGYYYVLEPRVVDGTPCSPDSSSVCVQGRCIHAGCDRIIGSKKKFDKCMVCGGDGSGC

T6: MMP2 (human, UniProt P08253 110-660, limits assumed)
T6 sequence (looked up): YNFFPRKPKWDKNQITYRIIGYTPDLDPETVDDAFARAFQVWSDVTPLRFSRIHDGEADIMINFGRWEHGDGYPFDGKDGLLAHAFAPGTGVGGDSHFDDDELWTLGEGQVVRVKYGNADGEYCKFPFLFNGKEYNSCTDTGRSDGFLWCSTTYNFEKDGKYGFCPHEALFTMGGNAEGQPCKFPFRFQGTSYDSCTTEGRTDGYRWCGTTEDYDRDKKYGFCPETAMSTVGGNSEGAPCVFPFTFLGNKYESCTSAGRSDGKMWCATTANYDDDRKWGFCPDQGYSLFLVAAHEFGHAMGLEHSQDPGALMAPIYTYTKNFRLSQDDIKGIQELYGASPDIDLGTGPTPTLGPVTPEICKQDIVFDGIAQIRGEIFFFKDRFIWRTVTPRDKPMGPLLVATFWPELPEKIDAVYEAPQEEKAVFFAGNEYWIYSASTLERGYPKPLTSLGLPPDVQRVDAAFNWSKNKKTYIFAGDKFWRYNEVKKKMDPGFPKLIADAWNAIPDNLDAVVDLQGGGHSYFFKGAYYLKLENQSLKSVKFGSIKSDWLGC

B1: Variant A2M, bait region SEQ ID NO 25 (other)
chain: SVSGKPQYMVLVPSLLHTETTEKGCVLLSYLNETVTVSASLESVRGNRSLFTDLEAENDVLHCVAFAVPKSSSNEEVMFLTVQVKGPTQEFKKRTTVMVKNEDSLVFVQTDKSIYKPGQTVKFRVVSMDENFHPLNELIPLVYIQDPKGNRIAQWQSFQLEGGLKQFSFPLSSEPFQGSYKVVVQKKSGGRTEHPFTVEEFVLPKFEVQVTVPKIITILEEEMNVSVCGLYTYGKPVPGHVTVSICRKYSDASDCHGEDSQAFCEKFSGQLNSHGCFYQQVKTKVFQLKRKEYEMKLHTEAQIQEEGTVVELTGRQSSEITRTITKLSFVKVDSHFRQGIPFFGQVRLVDGKGVPIPNKVIFIRGNEANYYSNATTDEHGLVQFSINTTNVMGTSLTVRVNYKDRSPCYGYQWVSEEHEEAHHTAYLVFSPSKSFVHLEPMSHELPCGHTQTVQAHYILNGGTLLGLKKLSFYYLIMAKGGIVRTGTHGLLVKQEDMKGHFSISIPVKSDIAPVARLLIYAVLPTGDVIGDSAKYDVENCLANKVDLSFSPSQSLPASHAHLRVTAAPQSVCALRAVDQSVLLMKPDAELSASSVYNLLPEKDLTGFPGPLNDQDDEDCINRHNVYINGITYTPVSSTNEKDMYSFLEDMGLKAFTNSKIRKPKMCPQLEHGPEGEGEGEGIPENFYGVSEDLYTASELEGRGSVEEPHTKLRKYFPETWIWDLVVVNSAGVAEVGVTVPDTITEWKAGAFCLSEDAGLGISSTASLRAFQPFFVELTMPYSVIRGEAFTLKATVLNYLPKCIRVSVQLEASPAFLAVPVEKEQAPHCICANGRQTVSWAVTPKSLGNVNFTVSAEALESQELCGTEVPSVPEHGRKDTVIKPLLVEPEGLEKETTFNSLLCPSGGEVSEELSLKLPPNVVEESARASVSVLGDILGSAMQNTQNLLQMPYGCGEQNMVLFAPNIYVLDYLNETQQLTPEIKSKAIGYLNTGYQRQLNYKHYDGSYSTFGERYGRNQGNTWLTAFVLKTFAQARAYIFIDEAHITQALIWLSQRQKDNGCFRSSGSLLNNAIKGGVEDEVTLSAYITIALLEIPLTVTHPVVRNALFCLESAWKTAQEGDHGSHVYTKALLAYAFALAGNQDKRKEVLKSLNEEAVKKDNSVHWERPQKPKAPVGHFYEPQAPSAEVEMTSYVLLAYLTAQPAPTSEDLTSATNIVKWITKQQNAQGGFSSTQDTVVALHALSKYGAATFTRTGKAAQVTIQSSGTFSSKFQVDNNNRLLLQQVSLPELPGEYSMKVTGEGCVYLQTSLKYNILPEKEEFPFALGVQTLPQTCDEPKAHTSFQISLSVSYTGSRSASNMAIVDVKMVSGFIPLKPTVKMLERSNHVSRTEVSSNHVLIYLDKVSNQTLSLFFTVLQDVPVRDLKPAIVKVYDYYETDEFAIAEYNAPCSKDLGNADYKDDDDKGASHHHHHH
B2: Variant A2M, bait region SEQ ID NO 23 (other)
chain: SVSGKPQYMVLVPSLLHTETTEKGCVLLSYLNETVTVSASLESVRGNRSLFTDLEAENDVLHCVAFAVPKSSSNEEVMFLTVQVKGPTQEFKKRTTVMVKNEDSLVFVQTDKSIYKPGQTVKFRVVSMDENFHPLNELIPLVYIQDPKGNRIAQWQSFQLEGGLKQFSFPLSSEPFQGSYKVVVQKKSGGRTEHPFTVEEFVLPKFEVQVTVPKIITILEEEMNVSVCGLYTYGKPVPGHVTVSICRKYSDASDCHGEDSQAFCEKFSGQLNSHGCFYQQVKTKVFQLKRKEYEMKLHTEAQIQEEGTVVELTGRQSSEITRTITKLSFVKVDSHFRQGIPFFGQVRLVDGKGVPIPNKVIFIRGNEANYYSNATTDEHGLVQFSINTTNVMGTSLTVRVNYKDRSPCYGYQWVSEEHEEAHHTAYLVFSPSKSFVHLEPMSHELPCGHTQTVQAHYILNGGTLLGLKKLSFYYLIMAKGGIVRTGTHGLLVKQEDMKGHFSISIPVKSDIAPVARLLIYAVLPTGDVIGDSAKYDVENCLANKVDLSFSPSQSLPASHAHLRVTAAPQSVCALRAVDQSVLLMKPDAELSASSVYNLLPEKDLTGFPGPLNDQDDEDCINRHNVYINGITYTPVSSTNEKDMYSFLEDMGLKAFTNSKIRKPKMCPQLEHGPIPENFYGVEGEGLGIGSEDLVVQISELEGRGSVEEPHTKLRKYFPETWIWDLVVVNSAGVAEVGVTVPDTITEWKAGAFCLSEDAGLGISSTASLRAFQPFFVELTMPYSVIRGEAFTLKATVLNYLPKCIRVSVQLEASPAFLAVPVEKEQAPHCICANGRQTVSWAVTPKSLGNVNFTVSAEALESQELCGTEVPSVPEHGRKDTVIKPLLVEPEGLEKETTFNSLLCPSGGEVSEELSLKLPPNVVEESARASVSVLGDILGSAMQNTQNLLQMPYGCGEQNMVLFAPNIYVLDYLNETQQLTPEIKSKAIGYLNTGYQRQLNYKHYDGSYSTFGERYGRNQGNTWLTAFVLKTFAQARAYIFIDEAHITQALIWLSQRQKDNGCFRSSGSLLNNAIKGGVEDEVTLSAYITIALLEIPLTVTHPVVRNALFCLESAWKTAQEGDHGSHVYTKALLAYAFALAGNQDKRKEVLKSLNEEAVKKDNSVHWERPQKPKAPVGHFYEPQAPSAEVEMTSYVLLAYLTAQPAPTSEDLTSATNIVKWITKQQNAQGGFSSTQDTVVALHALSKYGAATFTRTGKAAQVTIQSSGTFSSKFQVDNNNRLLLQQVSLPELPGEYSMKVTGEGCVYLQTSLKYNILPEKEEFPFALGVQTLPQTCDEPKAHTSFQISLSVSYTGSRSASNMAIVDVKMVSGFIPLKPTVKMLERSNHVSRTEVSSNHVLIYLDKVSNQTLSLFFTVLQDVPVRDLKPAIVKVYDYYETDEFAIAEYNAPCSKDLGNADYKDDDDKGASHHHHHH

Key:
Experiment in all cases: cell-based or functional assay
MMP8 = MMP8 (human, UniProt P22894 101-467, limits assumed)
Cathepsin G = target: T1, Cathepsin G
MMP1 = target: T2, MMP1
MMP7 = target: T3, MMP7
ADAMTS5 = target: T4, ADAMTS5
MMP9 = MMP9 (human, UniProt P14780 107-707, limits assumed)
MMP3 = MMP3 (human, UniProt P08254 100-477, limits assumed)
Elastase = target: Elastase
ADAMTS4 = target: T5, ADAMTS4
MMP2 = target: T6, MMP2
MMP13 = MMP13 (human, UniProt P45452 104-471, limits assumed)

Sequence of MMP3 (P08254 100-477 limits assumed): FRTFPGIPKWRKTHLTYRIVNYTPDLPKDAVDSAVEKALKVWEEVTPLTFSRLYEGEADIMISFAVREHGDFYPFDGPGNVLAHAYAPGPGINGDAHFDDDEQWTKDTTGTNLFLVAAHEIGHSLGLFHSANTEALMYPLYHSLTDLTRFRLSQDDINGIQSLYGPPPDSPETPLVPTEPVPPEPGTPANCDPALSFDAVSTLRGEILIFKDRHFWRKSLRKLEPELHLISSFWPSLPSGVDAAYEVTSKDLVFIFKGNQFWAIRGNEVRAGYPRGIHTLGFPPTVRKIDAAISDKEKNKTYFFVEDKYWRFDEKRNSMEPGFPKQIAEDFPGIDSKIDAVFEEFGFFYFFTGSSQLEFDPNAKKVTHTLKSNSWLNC
Sequence of MMP8 (P22894 101-467 limits assumed): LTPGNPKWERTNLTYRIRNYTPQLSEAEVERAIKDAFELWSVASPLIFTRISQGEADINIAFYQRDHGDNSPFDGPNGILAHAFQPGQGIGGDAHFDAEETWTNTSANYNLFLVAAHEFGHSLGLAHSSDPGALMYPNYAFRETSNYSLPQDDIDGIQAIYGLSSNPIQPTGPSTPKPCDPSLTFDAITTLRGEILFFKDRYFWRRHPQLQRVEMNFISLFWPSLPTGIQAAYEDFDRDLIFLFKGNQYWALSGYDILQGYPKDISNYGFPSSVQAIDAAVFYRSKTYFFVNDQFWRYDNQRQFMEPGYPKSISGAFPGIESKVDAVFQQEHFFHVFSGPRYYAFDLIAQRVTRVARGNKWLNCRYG
Sequence of MMP9 (P14780 107-707 limits assumed): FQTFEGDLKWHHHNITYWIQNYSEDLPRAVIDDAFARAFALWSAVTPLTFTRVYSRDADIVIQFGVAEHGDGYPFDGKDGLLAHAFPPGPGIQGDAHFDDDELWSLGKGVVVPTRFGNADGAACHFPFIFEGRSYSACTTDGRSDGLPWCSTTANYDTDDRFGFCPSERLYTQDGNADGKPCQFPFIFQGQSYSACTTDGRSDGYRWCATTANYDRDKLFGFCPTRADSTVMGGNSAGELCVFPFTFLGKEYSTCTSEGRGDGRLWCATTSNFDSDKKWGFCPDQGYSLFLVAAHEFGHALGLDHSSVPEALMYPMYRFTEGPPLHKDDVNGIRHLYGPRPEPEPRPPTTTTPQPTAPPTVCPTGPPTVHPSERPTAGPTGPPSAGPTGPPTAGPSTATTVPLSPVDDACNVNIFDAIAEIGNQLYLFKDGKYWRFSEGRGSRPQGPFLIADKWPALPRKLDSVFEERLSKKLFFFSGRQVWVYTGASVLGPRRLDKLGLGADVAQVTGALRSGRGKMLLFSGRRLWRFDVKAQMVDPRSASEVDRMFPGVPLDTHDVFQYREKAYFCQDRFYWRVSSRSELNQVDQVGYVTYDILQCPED

Binder	Protease Inhibition (% of WT) (MMP8)	Protease Inhibition (% of WT) (Cathepsin G)	Protease Inhibition (% of WT) (MMP1)	Protease Inhibition (% of WT) (MMP7)	Protease Inhibition (% of WT) (ADAMTS5)	Protease Inhibition (% of WT) (MMP9)	Protease Inhibition (% of WT) (MMP3)	Protease Inhibition (% of WT) (Elastase)	Protease Inhibition (% of WT) (ADAMTS4)	Protease Inhibition (% of WT) (MMP2)	Protease Inhibition (% of WT) (MMP13)
B1	36 % of WT	117 % of WT	101 % of WT	140 % of WT	376 % of WT	25 % of WT	86 % of WT	100 % of WT	144 % of WT	43 % of WT	138 % of WT
B2	132 % of WT	145 % of WT	133 % of WT	191 % of WT	200 % of WT	71 % of WT	111 % of WT	147 % of WT	176 % of WT	80 % of WT	133 % of WT
